Non-standard residues stand in square brackets, D forms with d. No end group written: not given here. pS = N[C@@H](COP(=O)(O)O)C(=O)O
Columns and labels:
[1] = molecular target: T1, 14-3-3 Saccharomyces cerevisiae isoform BMH1, His-tagged (Saccharomyces cerevisiae, UniProt P29311 1-267); test: pull-down
T1 sequence (looked up): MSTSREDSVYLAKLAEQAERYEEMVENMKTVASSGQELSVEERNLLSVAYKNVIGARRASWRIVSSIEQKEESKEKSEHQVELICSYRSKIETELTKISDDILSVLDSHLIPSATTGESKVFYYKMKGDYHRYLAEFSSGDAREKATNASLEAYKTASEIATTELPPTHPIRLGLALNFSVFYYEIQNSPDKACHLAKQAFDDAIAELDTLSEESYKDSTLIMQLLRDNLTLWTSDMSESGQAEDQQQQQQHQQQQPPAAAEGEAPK

[2] = molecular target: T2, 14-3-3 Saccharomyces cerevisiae isoform BMH2, His-tagged (Saccharomyces cerevisiae, UniProt P34730 1-273); test: pull-down
T2 sequence (looked up): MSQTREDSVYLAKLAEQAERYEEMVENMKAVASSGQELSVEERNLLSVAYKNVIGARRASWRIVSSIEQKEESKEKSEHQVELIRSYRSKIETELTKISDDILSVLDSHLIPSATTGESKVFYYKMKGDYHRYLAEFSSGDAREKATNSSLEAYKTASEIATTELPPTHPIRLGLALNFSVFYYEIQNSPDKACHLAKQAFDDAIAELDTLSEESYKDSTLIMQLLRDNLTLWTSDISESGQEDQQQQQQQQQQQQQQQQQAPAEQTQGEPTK

ARAA[pS]APA [peptide ARAApSAPA]: binds [1]; binds [2].

From article PMC2171568 (The Journal of Cell Biology, 2005)
